The target of this test is Env of 92 subtype B viruses. The experiment in a line: cell-based or functional assay.

Numbering of substitutions follows the chain as printed.

B1: PGT121.42 hIgG1/hLambda (antibody)
heavy: QMQLQESGPGLVKPSETLSLTCSVSGASISDSYWSWIRRSPGKGLEWIGYVHKSGDTNYNPSLKSRVHLSLDTSKNQVSLSLSSVTAADSGKYYCARTLHGRRIYGIVAFNEWFTYFYMDVWGKGTQVTVSSASTKGPSVFPLAPSSKSTSGGTAALGCLVKDYFPEPVTVSWNSGALTSGVHTFPAVLQSSGLYSLSSVVTVPSSSLGTQTYICNVNHKPSNTKVDKKVEPKSCDKTHTCPPCPAPELLAGPDVFLFPPKPKDTLMISRTPEVTCVVVDVSHEDPEVKFNWYVDGVEVHNAKTKPREEQYNSTYRVVSVLTVLHQDWLNGKEYKCKVSNKALPLPEEKTISKAKGQPREPQVYTLPPSREEMTKNQVSLTCLVKGFYPSDIAVEWESNGQPENNYKTTPPVLDSDGSFFLYSKLTVDKSRWQQGNVFSCSVLHEALHSHYTQKSLSLSPGK
light: not shown
For B1, the PGT121 IC50/Variant IC50 is 1.2 fold, the neutralization Coverage (%) was 63% and the neutralization Median IC95 came to 0.277 µg/mL.

B2: PGT121.56 hIgG1/hLambda (antibody)
heavy: B1 heavy with N60S, H68N, S83V, S84A, V85A, K124N
light: not shown
As to B2, the neutralization Coverage (%) was determined as 62% and the neutralization Median IC95 is 0.265 µg/mL.

B3: PGT121.60 hIgG1/hLambda (antibody)
heavy: B1 heavy with S83T, S84G, K124T
light: not shown
On to B3, for which the PGT121 IC50/Variant IC50 was 1.9 fold, the neutralization Coverage (%) was 59.8% and the neutralization Median IC95 turned out to be 0.177 µg/mL.

B4: PGT121.65 hIgG1/hLambda (antibody)
heavy: B1 heavy with M2L, S32A, S83T, S84G, T98A, K124T
light: SDISVAPGETARISCGEKSLGSRAVQWYQHRAGQAPSLIIYNNQDRPSGIPERFSGSPDSRPGTTATLTITSVEAGDEADYYCHIWDSRVPTKWVFGGGTKLTVLGQPKAAPSVTLFPPSSEELQANKATLVCLISDFYPGAVTVAWKADSSPVKAGVETTTPSKQSNNKYAASSYLSLTPEQWKSHRSYSCQVTHEGSTVEKTVAPTECS
B4: the PGT121 IC50/Variant IC50 was found to be 2 fold, the neutralization Coverage (%) came to 59.8% and the neutralization Median IC95 stood at 0.165 µg/mL.

B5: PGT121.61 hIgG1/hLambda (antibody)
heavy: B1 heavy with S83T, S84G, K124T
light: B4 light
As for B5, the PGT121 IC50/Variant IC50 amounted to 1 fold, the neutralization Coverage (%) is 58.7% and the neutralization Median IC95 amounted to 0.327 µg/mL.

B6: PGT121.64 hIgG1/hLambda (antibody)
heavy: B1 heavy with M2L, S32A, S83T, S84G, T98A, K124T
light: not shown
In turn, B6 yielded a PGT121 IC50/Variant IC50 of 2.6 fold, a neutralization Coverage (%) of 59.8% and a neutralization Median IC95 of 0.129 µg/mL.

Values taken from patent publication US20210155676A1.
